Data as given in the supplement of paper PMC12764529.
± gives the half width of the 95% confidence interval.

Tests used:
[1] = folding stability dG unfold (combined trypsin and chymotrypsin); higher = more stable
Summary of the method: (§1)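 Only designs with AlphaFold2 dimer inter-PAE above 15 were retained; each was a mini-protein under 80 residues with no cysteine, in a PA-tagged cDNA display construct. After digestion with trypsin and chymotrypsin and sequencing, K50 was inferred by Bayesian fitting of counts, and unfolding free energy was derived per protease or combined against a sequence-predicted unfolded-state K50 and a shared folded-state K50.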

[2] = folding stability dG unfold from chymotrypsin proteolysis; higher = more stable
Summary of the method: as §1

[3] = folding stability dG unfold from trypsin proteolysis; higher = more stable
Summary of the method: as §1

Sequence	folding stability dG unfold [1]	folding stability dG unfold [2]	folding stability dG unfold [3]
SAGGSAGGMKLLKVVVERKDGSKRELEIPEELLVELGRPPTPEEIAKLLGIKPEDIVRVEIEDVSAGGSAGG [r6_166_TrMRF]	4.74 ± 0.2 kcal/mol	4.87 ± 0.21 kcal/mol	3.65 ± 0.15 kcal/mol
SAGGSAGGMKTVEIEVTVKTPDGKEVKIKKARIEYDKETKTFHLYFENEETGEWYEVDEIKLKDSAGGSAGG [r6_329_TrROS_Hall]	2.71 ± 0.2 kcal/mol	2.69 ± 0.18 kcal/mol	1.96 ± 0.085 kcal/mol
SAGGSAGGMKVVVKFTVRPRDPDTDEAVPAELVLEFDSLEEALAAAEELAALPEGTEIEIEVLTSAGGSAGG [r6_999_TrMRF]	1.96 ± 0.088 kcal/mol	1.76 ± 0.031 kcal/mol	2.2 ± 0.058 kcal/mol
SAGGSAGGMKYTTTTETSVVEVRTDPKTGTTTRLERVTVTTVDSSGNVLSTTETLEERVDPVPASAGGSAGG [r6_181_JUSTAS]	2.15 ± 0.039 kcal/mol	2.163 ± 0.0081 kcal/mol	2.1 ± 0.059 kcal/mol
SAGGSAGGMKYVVTVELPETGTTRTLTIPDNYTGEENVKKAVEEEAKKLGYSISKIEITKINDKSAGGSAGG [r6_718_JUSTAS]	0.536 ± 0.12 kcal/mol	0.654 ± 0.14 kcal/mol	0.367 ± 0.086 kcal/mol
SAGGSAGGMLEIEFEKPLPNGETLKIKVFFDKDKPEALVEIENPSTNEKKFYNFTSIDEVIEKESAGGSAGG [r6_464_TrMRF]	1.49 ± 0.24 kcal/mol	1.7 ± 0.2 kcal/mol	1.03 ± 0.048 kcal/mol
SAGGSAGGMNIQILKVDPDNGTITLAIPVDNWIVAISIKIRPDPNNPGMFKLDIDIHWFPADDISAGGSAGG [r6_372_TrROS]	4.28 ± 0.091 kcal/mol	4.44 ± 0.11 kcal/mol	3.77 ± 0.14 kcal/mol
SAGGSAGGMNPTVTPVEVDVGDKPLTVFLFGDGTALVLFPDGGLAGAPVGTPDDRPVNLAIIGPSAGGSAGG [r6_239_TrMRF]	0.927 ± 0.073 kcal/mol	0.955 ± 0.053 kcal/mol	0.887 ± 0.037 kcal/mol
SAGGSAGGMPLLALSYPVLKDGKLYRVLFLYSPDGTFLGPFYVSADLTEDIPPDTVVLVHPDALSAGGSAGG [r6_33_TrMRF]	3.55 ± 0.1 kcal/mol	3.523 ± 0.03 kcal/mol	3.24 ± 0.09 kcal/mol
SAGGSAGGMPPVSLPETPVTITDPATGKPRLVTVLAAAPDGTLTVRFPDGSEVTVAGEPLLELESAGGSAGG [r6_435_JUSTAS]	0.878 ± 0.051 kcal/mol	1.05 ± 0.019 kcal/mol	0.446 ± 0.042 kcal/mol
SAGGSAGGMPVEIEILTPDNLLPTFTIPDPEEAEKIKSVEVFGDRFIKITLGDKEIVIEVYPDNSAGGSAGG [r6_206_TrMRF]	1.01 ± 0.12 kcal/mol	0.559 ± 0.063 kcal/mol	1.48 ± 0.061 kcal/mol
SAGGSAGGMSPDAKPIGEKTDESPGPEKVTTTTLKSPDPSLTYTVTTTTVGSTTTTTTTAVPVLSAGGSAGG [r6_923_JUSTAS]	0.261 ± 0.1 kcal/mol	0.134 ± 0.4 kcal/mol	0.439 ± 0.051 kcal/mol
SAGGSAGGMTFTFPPGARVRIAIYNKNGELIEEREIDEPGAKITIEKDEETGEWRIVSIELLEPSAGGSAGG [r6_523_TrROS_Hall]	3.45 ± 0.18 kcal/mol	3.76 ± 0.05 kcal/mol	3.12 ± 0.084 kcal/mol
SAGGSAGGMTIEEKAEELEEELKKKYPDMEVKVEVDPEKGIVKITITDPKNPGKTTELTFPVEESAGGSAGG [r6_478_JUSTAS]	3.36 ± 0.15 kcal/mol	2.23 ± 0.19 kcal/mol	4.2 ± 0.45 kcal/mol
SAGGSAGGMTIEVTFPDGTKLTITLENDGPDTLLATAEVEAPRAGGPSIPKEVAAKLAEELLASSAGGSAGG [r6_234_TrMRF]	1.36 ± 0.12 kcal/mol	1.62 ± 0.081 kcal/mol	1.19 ± 0.061 kcal/mol
SAGGSAGGMTKDDIIEKLKKEYPDKDVKVLKVEESVLPSGKILAKVTLEFPEEGKTFEKTFEVESAGGSAGG [r6_572_JUSTAS]	2.71 ± 0.2 kcal/mol	2.69 ± 0.13 kcal/mol	2.91 ± 0.3 kcal/mol
SAGGSAGGMTLEIEVNGKKIKIEVIKDKETNRYFVRITVDGKEVLIEADSKEDALKAIKELLKKSAGGSAGG [r6_715_TrROS_Hall]	4.12 ± 0.077 kcal/mol	4.42 ± 0.076 kcal/mol	2.93 ± 0.059 kcal/mol
SAGGSAGGMTLTVDLPLPDGGTVRLEVEPLPDGTVRVRLTYPDGRKAEFETSAPVEVLLERAAGSAGGSAGG [r6_808_TrMRF]	2.69 ± 0.086 kcal/mol	3.05 ± 0.054 kcal/mol	1.61 ± 0.026 kcal/mol

Sequence	folding stability dG unfold [1]	folding stability dG unfold [2]	folding stability dG unfold [3]
SAGGSAGGMTPEEERRKKESPVPPVNKVTVKIPVPSSVSEEVAKEIAEKLEKESGAKKVEVILPSAGGSAGG [r6_517_JUSTAS]	1 ± 0.091 kcal/mol	1.34 ± 0.098 kcal/mol	0.257 ± 0.042 kcal/mol
SAGGSAGGMTPEELAEQKAEELREKLLAEGRPVSLKITKVTYEVDPKTGTVKVTSDIEIVYGPGSAGGSAGG [r6_454_JUSTAS]	0.986 ± 0.24 kcal/mol	0.434 ± 0.29 kcal/mol	1.04 ± 0.08 kcal/mol
SAGGSAGGMTSDKPVLPALIRVYYPNEGREETIPVLLGEDMPLEEALRIARELAHPDAKAEILNSAGGSAGG [r6_440_TrMRF]	0.395 ± 0.06 kcal/mol	0.624 ± 0.053 kcal/mol	-0.183 ± 0.093 kcal/mol
SAGGSAGGMTTVTYDPSTGVTTVLTPKTDPTSDETSVVTTTVTLPTSPSGGGGTATTTTTTTASSAGGSAGG [r6_952_JUSTAS]	1.18 ± 0.045 kcal/mol	1.39 ± 0.024 kcal/mol	0.74 ± 0.051 kcal/mol
SAGGSAGGMVFENLSEEEAKIIAKNIAENFKKKYPNVKIKVEAEVYKLPNPKVIVVIKLEIEEESAGGSAGG [r6_787_TrMRF]	3.09 ± 0.15 kcal/mol	3.54 ± 0.07 kcal/mol	2.55 ± 0.086 kcal/mol
SAGGSAGGMVIPFILPGSEFEEEEAIERLLELIETARELNPDTPIIANPLILEVPPPPTETELGSAGGSAGG [r6_728_TrMRF]	1.22 ± 0.28 kcal/mol	0.538 ± 0.13 kcal/mol	1.36 ± 0.099 kcal/mol
SAGGSAGGMVIVFDKKNKTIYIYDKKTGKKIEIKVKSIEEAKEAIKKLFPNKKVEIVEVKIFKPSAGGSAGG [r6_286_TrROS_Hall]	1.76 ± 0.2 kcal/mol	1.9 ± 0.09 kcal/mol	1.43 ± 0.065 kcal/mol
SAGGSAGGMVKLKVYKIPESVPPELRALLEALVEGEGEVEVEPEEAEALLKLPGIEELEVEELESAGGSAGG [r6_381_TrMRF]	1.59 ± 0.077 kcal/mol	1.84 ± 0.059 kcal/mol	0.912 ± 0.021 kcal/mol
SAGGSAGGMVLVLRFPLGEPALIALYDPETGEVHVYDPGTRELLGTFPLPIEDFLELGAEAEPVSAGGSAGG [r6_831_TrMRF]	1.84 ± 0.12 kcal/mol	2.2 ± 0.094 kcal/mol	0.698 ± 0.051 kcal/mol
SAGGSAGGMVTFTVEYESDPALLEKLKEELPGVEILEVKREGPKKTITITIKVPSEEKAKKFLSSAGGSAGG [r6_334_JUSTAS]	1 ± 0.12 kcal/mol	1.16 ± 0.11 kcal/mol	0.704 ± 0.086 kcal/mol
SAGGSAGGMVTVPVPKDKPLNPVATVKLPDGSTIPAGPVAVDLEKGTATLEVPEPAEVIVEVNPSAGGSAGG [r6_180_JUSTAS]	1.01 ± 0.037 kcal/mol	1.36 ± 0.023 kcal/mol	0.0542 ± 0.08 kcal/mol
SAGGSAGGNKIWIPITITFMVPVRKDPDGKPKLSPEDPDRWKPVEFEIPIEIDPDPDNGKIKIWSAGGSAGG [r6_537_TrROS]	1.26 ± 0.24 kcal/mol	0.701 ± 0.25 kcal/mol	1.5 ± 0.042 kcal/mol
SAGGSAGGNKPIMVRIKIWHDNGKTRRFFVQIPEGFDDPSELASELAKEFNKQYPNYRIEVEPFSAGGSAGG [r6_132_TrROS]	2.78 ± 0.13 kcal/mol	2.86 ± 0.03 kcal/mol	2.55 ± 0.052 kcal/mol
SAGGSAGGNKSYTVIIRFPMKRKEDPDGEDKKPRPVTIEYTVKSPEDANELKNKLKDNGAEIVPSAGGSAGG [r6_141_TrROS]	0.531 ± 0.12 kcal/mol	0.698 ± 0.12 kcal/mol	0.263 ± 0.15 kcal/mol
SAGGSAGGNMIPVKARMKWPDGKEFPFEIMVQYQPDGQMQIEIQNPGDGETVTFPNMKLIDVEISAGGSAGG [r6_255_TrROS]	0.469 ± 0.06 kcal/mol	0.828 ± 0.021 kcal/mol	-0.656 ± 0.26 kcal/mol
SAGGSAGGNTITVFMPYSQARELAEELRDEGITVDIQPYPDWMFITVEIKVPKIDPEDNPDNKDSAGGSAGG [r6_392_TrROS]	1.35 ± 0.089 kcal/mol	1.3 ± 0.074 kcal/mol	1.43 ± 0.047 kcal/mol
SAGGSAGGPEIDLKEVRVFYPPGGERLVLVEVRDDVPLEQVRDWVLERGGEFYRELPNQILVRGSAGGSAGG [r6_543_TrMRF]	-0.00273 ± 0.18 kcal/mol	-0.179 ± 0.34 kcal/mol	0.0648 ± 0.21 kcal/mol
SAGGSAGGPEITIIIGNAGPIEVALKTAKEIKKILEEKGYPNVKIPILIIPFGSPEKLKEALGGSAGGSAGG [r6_476_TrMRF]	0.383 ± 0.29 kcal/mol	-0.0243 ± 0.32 kcal/mol	0.0997 ± 0.1 kcal/mol
